Measurements: publication PMC3868510

Tests used:
[1] = target: soluble truncated αvβ6 integrin conjugated to alkaline phosphatase (UniProt P06756); test: SPR; Biacore 2000, CM-5 chip; MAb LS-C44264 to placental alkaline phosphatase immobilised by amine coupling and used to capture the soluble integrin-AP; gH/gL injected at 50 µl/min; 25°C; 10 mM HEPES-NaOH pH 7.4, 150 mM NaCl, 0.005% P20; kobs against gH/gL concentration, 1:1 Langmuir
[2] = target: soluble truncated αvβ8 integrin conjugated to alkaline phosphatase (UniProt P06756); test: as above
soluble truncated αvβ8 integrin conjugated to alkaline phosphatase, sequence (P06756 31-1048, chain 1 of 2): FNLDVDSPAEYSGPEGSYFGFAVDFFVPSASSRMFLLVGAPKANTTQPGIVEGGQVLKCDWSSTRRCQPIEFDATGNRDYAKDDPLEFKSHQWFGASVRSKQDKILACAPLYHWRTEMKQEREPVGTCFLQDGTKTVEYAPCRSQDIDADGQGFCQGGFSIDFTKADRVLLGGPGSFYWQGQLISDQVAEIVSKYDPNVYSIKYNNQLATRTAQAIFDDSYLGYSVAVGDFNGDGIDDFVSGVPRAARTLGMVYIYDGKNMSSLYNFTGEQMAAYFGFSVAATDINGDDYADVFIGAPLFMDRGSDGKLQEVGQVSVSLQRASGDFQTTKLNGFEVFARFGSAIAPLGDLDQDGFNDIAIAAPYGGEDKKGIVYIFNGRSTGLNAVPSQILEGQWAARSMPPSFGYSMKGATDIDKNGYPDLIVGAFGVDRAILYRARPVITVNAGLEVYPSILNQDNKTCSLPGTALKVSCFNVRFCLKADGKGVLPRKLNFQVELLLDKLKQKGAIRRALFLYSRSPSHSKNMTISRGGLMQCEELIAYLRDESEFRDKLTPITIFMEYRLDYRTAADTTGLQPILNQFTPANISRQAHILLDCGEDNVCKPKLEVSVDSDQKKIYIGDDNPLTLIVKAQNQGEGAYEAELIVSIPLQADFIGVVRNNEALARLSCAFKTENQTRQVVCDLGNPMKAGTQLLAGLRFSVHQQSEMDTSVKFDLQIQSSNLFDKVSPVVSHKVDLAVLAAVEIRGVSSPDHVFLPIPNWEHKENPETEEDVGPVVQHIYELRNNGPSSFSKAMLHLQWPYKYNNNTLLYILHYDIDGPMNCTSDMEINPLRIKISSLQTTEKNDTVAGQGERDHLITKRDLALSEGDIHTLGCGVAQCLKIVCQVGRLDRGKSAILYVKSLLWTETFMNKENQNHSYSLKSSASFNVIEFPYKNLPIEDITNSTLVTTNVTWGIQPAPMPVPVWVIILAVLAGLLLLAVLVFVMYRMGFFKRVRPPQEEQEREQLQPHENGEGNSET
soluble truncated αvβ8 integrin conjugated to alkaline phosphatase, sequence (P26012 43-684, chain 2 of 2, further chain): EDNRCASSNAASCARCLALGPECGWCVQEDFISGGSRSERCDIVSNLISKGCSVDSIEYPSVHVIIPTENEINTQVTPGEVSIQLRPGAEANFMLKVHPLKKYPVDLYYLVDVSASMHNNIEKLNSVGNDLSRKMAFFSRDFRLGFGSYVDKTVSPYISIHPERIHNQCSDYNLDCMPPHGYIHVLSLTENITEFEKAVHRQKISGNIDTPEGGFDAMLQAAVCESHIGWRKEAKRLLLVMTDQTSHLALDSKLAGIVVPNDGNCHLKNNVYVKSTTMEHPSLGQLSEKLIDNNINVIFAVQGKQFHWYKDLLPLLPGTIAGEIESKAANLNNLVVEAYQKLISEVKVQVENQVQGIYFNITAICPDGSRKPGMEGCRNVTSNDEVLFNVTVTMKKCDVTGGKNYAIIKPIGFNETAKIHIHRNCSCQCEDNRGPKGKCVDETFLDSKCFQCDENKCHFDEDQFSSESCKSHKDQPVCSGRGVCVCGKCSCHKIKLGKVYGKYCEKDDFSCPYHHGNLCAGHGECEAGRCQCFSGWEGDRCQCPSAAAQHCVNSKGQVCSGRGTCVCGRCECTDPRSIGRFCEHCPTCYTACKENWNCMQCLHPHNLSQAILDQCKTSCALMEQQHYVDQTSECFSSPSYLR

soluble truncated αvβ6 integrin conjugated to alkaline phosphatase, sequence (P06756 31-1048, chain 1 of 2): as the sequence (P06756 31-1048, chain 1 of 2) above
soluble truncated αvβ6 integrin conjugated to alkaline phosphatase, sequence (P18564 22-709, chain 2 of 2, further chain): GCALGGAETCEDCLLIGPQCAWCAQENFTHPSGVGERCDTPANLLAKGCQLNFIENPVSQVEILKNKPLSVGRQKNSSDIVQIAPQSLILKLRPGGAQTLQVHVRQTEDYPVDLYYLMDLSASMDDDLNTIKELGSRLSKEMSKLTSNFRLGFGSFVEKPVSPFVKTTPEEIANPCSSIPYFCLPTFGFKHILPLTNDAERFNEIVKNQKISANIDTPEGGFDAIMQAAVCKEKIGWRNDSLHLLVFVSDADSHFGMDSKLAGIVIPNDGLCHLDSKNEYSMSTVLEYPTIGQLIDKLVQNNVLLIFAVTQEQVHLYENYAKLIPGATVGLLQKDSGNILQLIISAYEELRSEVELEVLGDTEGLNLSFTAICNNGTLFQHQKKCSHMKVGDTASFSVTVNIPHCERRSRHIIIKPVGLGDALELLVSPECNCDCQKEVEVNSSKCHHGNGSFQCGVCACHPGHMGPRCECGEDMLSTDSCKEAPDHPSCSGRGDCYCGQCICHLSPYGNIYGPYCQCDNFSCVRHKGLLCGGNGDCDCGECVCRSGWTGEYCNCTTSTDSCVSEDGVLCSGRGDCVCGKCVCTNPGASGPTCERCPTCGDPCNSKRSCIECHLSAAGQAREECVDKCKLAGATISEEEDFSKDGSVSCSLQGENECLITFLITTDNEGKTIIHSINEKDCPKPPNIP

In the case of “soluble form of HSV gH/gL (gHt/gL) (from UniProt P06477 19-838; P10185 20-224) (complex)”, the Kd [1] is reported as 0.012 µM, the koff [1] is reported as 0.0018 s⁻¹ and the kon [1] is reported as 152000 M⁻¹ s⁻¹. It also gave a Kd [2] of 0.027 µM, a koff [2] of 0.005 s⁻¹ and a kon [2] of 207000 M⁻¹ s⁻¹.
